What was measured:
[1] = target: human BTLA (B- and T-lymphocyte attenuator) on cells (human) (UniProt Q7Z6A9); experiment: FACS, primary human T cells, donor 149, AF647 anti-human IgG Fc secondary antibody
[2] = target: human BTLA (B- and T-lymphocyte attenuator) on cells (human) (UniProt Q7Z6A9); experiment: FACS, primary human B cells, donor 1709, AF647 anti-human IgG Fc secondary antibody
[3] = target: human BTLA (B- and T-lymphocyte attenuator) on cells (human) (UniProt Q7Z6A9); experiment: FACS on HEK293T.hBTLA cells, AF647 anti-human IgG Fc detection
[4] = target: human BTLA (B- and T-lymphocyte attenuator) on cells (human) (UniProt Q7Z6A9); experiment: FACS, primary human B cells, donor 149, AF647 anti-human IgG Fc secondary antibody
[5] = target: human BTLA (B- and T-lymphocyte attenuator) on cells (human) (UniProt Q7Z6A9); experiment: FACS on HEK293 cells overexpressing human BTLA, AF647 anti-human IgG Fc detection
[6] = target: human BTLA (B- and T-lymphocyte attenuator) on cells (human) (UniProt Q7Z6A9); experiment: FACS, primary human T cells, donor 1709, AF647 anti-human IgG Fc secondary antibody
[7] = target: recombinant human BTLA (human) (UniProt Q7Z6A9); experiment: ELISA on recombinant human BTLA
[8] = target: human BTLA (B- and T-lymphocyte attenuator) on cells (human) (UniProt Q7Z6A9); experiment: FACS competition on HEK293T.hBTLA cells; competitor hrHVEM-His-DL650
[9] = target: cynomolgus BTLA on cells (cynomolgus); experiment: FACS on Expi293.cynoBTLA cells, AF647 anti-human IgG Fc detection
[10] = target: human BTLA (B- and T-lymphocyte attenuator) on cells (human) (UniProt Q7Z6A9); experiment: cell-based or functional assay
[11] = target: human BTLA (B- and T-lymphocyte attenuator) on cells (human) (UniProt Q7Z6A9); experiment: FACS competition on HEK293.BTLA cells; competitor DL650-conjugated soluble HVEM
[12] = target: cynomolgus BTLA on cells (cynomolgus); experiment: FACS on Expi293 cells overexpressing cynomolgus BTLA, AF647 anti-human IgG Fc detection

Sequence of human BTLA (B- and T-lymphocyte attenuator) on cells (human) (Q7Z6A9 31-289): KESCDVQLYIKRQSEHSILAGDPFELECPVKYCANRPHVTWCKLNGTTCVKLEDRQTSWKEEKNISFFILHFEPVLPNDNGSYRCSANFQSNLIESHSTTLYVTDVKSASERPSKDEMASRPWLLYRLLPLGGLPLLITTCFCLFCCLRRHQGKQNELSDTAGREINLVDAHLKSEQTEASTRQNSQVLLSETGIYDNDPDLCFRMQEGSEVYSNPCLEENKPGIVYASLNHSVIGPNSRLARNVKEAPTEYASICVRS
Sequence of cynomolgus BTLA on cells (cynomolgus) (chain, as listed by the source): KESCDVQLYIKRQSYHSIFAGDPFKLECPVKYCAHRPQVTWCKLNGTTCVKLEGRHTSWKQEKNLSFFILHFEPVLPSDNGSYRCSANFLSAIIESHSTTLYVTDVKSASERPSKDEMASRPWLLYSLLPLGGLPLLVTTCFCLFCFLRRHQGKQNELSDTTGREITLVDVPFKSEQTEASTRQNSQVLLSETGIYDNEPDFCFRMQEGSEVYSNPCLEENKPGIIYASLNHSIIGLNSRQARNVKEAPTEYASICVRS
Sequence of recombinant human BTLA (human) (Q7Z6A9 31-157 limits assumed): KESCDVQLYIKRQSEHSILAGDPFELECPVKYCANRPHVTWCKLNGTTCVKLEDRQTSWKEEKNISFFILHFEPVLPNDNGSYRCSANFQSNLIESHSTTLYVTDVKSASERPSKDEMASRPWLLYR

- EC50 [1]: 1.3 nM
- Emax(%) [1]: 97%
- EC50 [2]: 0.19 nM
- Emax(%) [2]: 82%
- EC50 [3]: 5.97 nM
- EC50 [4]: 0.19 nM
- Emax(%) [4]: 73%
- EC50 [5]: 0.804 nM
- EC50 [6]: 1.1 nM
- Emax(%) [6]: 56%
- EC50 [7]: 2.43 nM
- IC50 [8]: 1.47 nM
- EC50 [9]: 5.25 nM
- BTLA-HVEM blockade reporter assay, EC50 [10]: 10.4 nM
- Reporter EC50 [10]: 13.1 nM
- IC50 [11]: 4.32 nM
- EC50 [12]: 0.561 nM
B1: JS004 (antibody, INN chains, looked up, V domains shown)
VH: QVQLVQSGAEVKKPGASVKLSCKASGYNFKHTYAHWVRQAPGQGLEWIGRIDPANGNTKYDPKFQGRATMTADTASNTAYLELSSLRSEDTAVYYCVADHYGSSLLDYWGQGTLVTVSS
VL: DVVMTQTPLSLSVTPGQPASISCKSSQSLLDSDGKTYLNWFQQRPGQSPRRLIYLVSKLDSGVPDRFSGSGSGTDFTLKISRVEAEDVGVYYCWQGTYFPYTFGQGTKLEIK

Reference: patent publication US20250304693A1
